# Literature values as cited in PMC6858539.
# Like-named read-outs stand apart in the source and are kept apart here.
# Assays:
# [1] = biological target: RodZ nascent chain on ribosome (RNC-RodZ) (Escherichia coli) (UniProt P27434)
# [2] = biological target: RodZ nascent chain on ribosome (RNC-RodZ) (Escherichia coli) (UniProt P27434); remark: listed apart in the source
# Sequence of UniProt P27434 (P27434 whole entry): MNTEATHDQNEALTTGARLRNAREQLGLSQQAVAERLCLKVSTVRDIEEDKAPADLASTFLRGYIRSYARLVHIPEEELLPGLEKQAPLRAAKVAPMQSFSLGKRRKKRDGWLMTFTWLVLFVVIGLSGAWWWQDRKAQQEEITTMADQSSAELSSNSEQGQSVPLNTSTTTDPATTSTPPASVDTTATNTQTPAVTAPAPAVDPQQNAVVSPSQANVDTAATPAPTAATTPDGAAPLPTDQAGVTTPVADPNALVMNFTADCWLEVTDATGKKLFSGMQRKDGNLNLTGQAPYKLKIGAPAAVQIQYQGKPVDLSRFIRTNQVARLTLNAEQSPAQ
Kd [1] [nM],Kd [2] [nM],Substance
24,–,SRP (from UniProt P0AGD7)
–,< 1,SecA (from UniProt P10408)
